Tested on: male C57BL/6J mice on CDHFD (liver fibrosis)
Assay: Choline-deficient high fat diet (CDHFD) model of mouse NASH, liver hydroxyproline content
Type: in vivo
Settings: 15 mg/kg twice a week i.p., weeks 4 through 12 of CDHFD
Description: The Choline deficient high fat diet (CDHFD) is an established diet-induced model of Non-Alcoholic steatohepatitis (NASH). In this model, male C57BL/6J mice are fed a choline deficient, 0.10% Methionine, high fat diet for 12 weeks. Three to six weeks after the start of the CDHFD, activation of pro-fibrotic processes can be detected through increased expression of α-smooth muscle actin (α-SMA) protein, a marker for activation of hepatic stellate cells, and elevated tissue hydroxyproline content reflecting increased collagen synthesis and deposition (Matsumoto et. al, Int J Exp Pathol. 2013 April; 94(2):93-103).
LTBP complex-specific antibodies were tested for their ability to inhibit and/or reduce the extent of liver fibrosis in mice in the CDHFD model as follows. An outline of the study is shown below in Table 21.
Animals in the test cohorts were on the CDHFD for the duration of the study. A separate cohort of mice (Group 1) were administered a regular chow diet as a study control. Antibodies SR-AB42 and SR-AB31 were administered to mice by intraperitoneal (i.p.) injection beginning at 4 weeks post start of the CDHFD. Animals were dosed at antibody test concentrations 15 mg/kg twice a week (i.e., 30 mg/kg/week) for a test duration of 8 weeks (i.e., weeks 4 through 12). […] Endpoint readout was hydroxyproline content. […]

B1: SR-AB42: cycle 3 antibody, lineage SR-AB23; CDRs SEQ ID NO: 166-171; HCVR SEQ ID NO: 318, LCVR SEQ ID NO: 319 (antibody, V domains shown)
VH: QVQLVESGGGVVQPGRSLRLSCAASGFTFRSYVMHWVRQAPGKGLEWVAVISHEGSLKYYADSVKGRFTISRDNSKNTLYLQMNSLRAEDTAVYYCARPRIAARRGGFGYWGQGTLVTVSS
VL: NFMLTQPHSVSESPGKTVTISCTRSSGNIDNNYVQWYQQRPGSSPTTVIYEDNQRPSGVPDRFSGSIDSSSNSASLTISGLKTEDEADYYCQSYDYDTQGVVFGGGTKLTVL
Hydroxyproline (HYP) in liver tissue: inhibited the increase in HYP

From US11214614B2, “LTBP complex-specific inhibitors of TGFβ and uses thereof” (Scholar Rock, Inc., priority 2019, dated 2022)
